Data on three molecules can be found in patent publication US20240383982A1 (Genmab, published 2024).

Assay [1] concerns the target T1, human B7H4, full length, on cells (human, UniProt Q7Z7D3 25-282).
T1 construct: Uniprot Q7Z7D3; Used for transfected HEK cells and for the B7H4-expressing human tumor cell lines (endogenous B7H4); also called VTCN1
T1 sequence: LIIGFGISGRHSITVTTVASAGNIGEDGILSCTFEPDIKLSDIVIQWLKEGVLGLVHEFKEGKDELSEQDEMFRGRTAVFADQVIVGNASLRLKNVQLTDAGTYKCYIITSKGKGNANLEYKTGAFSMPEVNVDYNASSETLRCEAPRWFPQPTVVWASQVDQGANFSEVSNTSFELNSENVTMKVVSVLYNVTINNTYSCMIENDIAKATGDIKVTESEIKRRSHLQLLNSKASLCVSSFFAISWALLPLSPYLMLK
The experiment in a line: flow cytometry on MDA-MB-468 tumor cells [panel MDA-MB-468]. The procedure:
(§1) Cells (3×10⁴ cells/well) were incubated in polystyrene 96-well round-bottom plates (Greiner bio-one, cat. no. 650180) with serial dilutions of antibodies (ranging from 0.000458 to 30 μg/mL in 4-fold dilution steps) in 100 μL PBS/0.1% BSA/0.02% azide (staining buffer) at 4° C. for 30 min. Experiments were performed in technical duplicate. After washing twice in staining buffer, cells were incubated in 50 μL secondary antibody at 4° C. for 30 min. As a secondary antibody, R-Phycoerythrin (PE)-conjugated goat-anti-human IgG F(ab′)₂ (1:500 in FACS buffer; Jackson ImmunoResearch Laboratories, Inc., West Grove, PA, cat. no. 109-116-098), was used. Cells were washed twice in staining buffer, re-suspended in 30 μL FACS buffer containing Topro-3 (1:10,000 dilution) and analyzed on an iQue Screener (Intellicyt Corporation, USA). Binding curves were analyzed using non-linear regression (sigmoidal dose-response with variable slope) using GraphPad Prism V7.02 software (GraphPad Software, San Diego, CA, USA).
(§2) Binding was analyzed by flow cytometry as described above.

Assay [2] concerns the target T1, human B7H4, full length, on cells. The experiment in a line: flow cytometry on NIH-OVCAR-3 tumor cells [panel NIH-Ovcar-3 cells]. As for the experimental part: as §1, §2
Assay [3] addresses T2, B7H3-IgV/B7H4-IgC.
T2 construct: also called chimeric molecule with the IgV domain of B7H3 and the IgC domain of B7H4
T2 full-length chimeric protein on cells: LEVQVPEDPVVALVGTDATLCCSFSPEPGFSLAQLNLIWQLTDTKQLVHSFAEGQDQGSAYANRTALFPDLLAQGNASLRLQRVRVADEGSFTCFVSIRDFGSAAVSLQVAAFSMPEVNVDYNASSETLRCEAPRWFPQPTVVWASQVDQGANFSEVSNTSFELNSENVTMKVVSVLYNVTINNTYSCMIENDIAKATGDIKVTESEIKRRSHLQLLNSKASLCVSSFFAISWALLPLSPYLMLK
The experiment in a line: flow cytometry, HEK cells transiently transfected with B7H3-IgV/B7H4-IgC, PE anti-human IgG F(ab')2 [panel B7H3-IgV/B7H4-IgC].
Method: After washing twice in FACS buffer, cells were incubated with secondary antibody at 4° C. for 30 min. […] Next, cells were washed twice in FACS buffer, re-suspended in 20 μL FACS buffer and analyzed on an iQue Screener (Intellicyt Corporation, USA).
Further experiments were conducted to study the B7H4 domain specificity of the B7H4 antibodies in more detail, by analysis of full dose-response curves.

Assay [4] addresses T3, rat (Rattus norvegicus) B7H4, full length, on HEK-293F cells (rat, UniProt Q501W4 25-257).
T3 construct: Uniprot Q501W4; also called rat B7H4
T3 sequence: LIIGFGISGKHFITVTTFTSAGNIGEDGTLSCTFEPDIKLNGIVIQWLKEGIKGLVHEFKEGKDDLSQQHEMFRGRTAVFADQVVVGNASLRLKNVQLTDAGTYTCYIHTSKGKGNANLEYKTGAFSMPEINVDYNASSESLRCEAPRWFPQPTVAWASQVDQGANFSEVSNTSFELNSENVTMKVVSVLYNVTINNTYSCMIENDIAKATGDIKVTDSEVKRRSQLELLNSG
The experiment in a line: flow cytometry, HEK-293F cells transfected with rat B7H4 [panel Rat B7H4]. As for the experimental part:
as §1

Assay [5] deals with T4, human recombinant His tagged B7H4 protein (Sino Biological cat. no. 10738-H08H) (human, UniProt Q7Z7D3 29-258).
T4 construct: Bought protein; theoretical mass 26.8 kDa; also called human B7H4; human B7H4 extracellular domain
T4 sequence: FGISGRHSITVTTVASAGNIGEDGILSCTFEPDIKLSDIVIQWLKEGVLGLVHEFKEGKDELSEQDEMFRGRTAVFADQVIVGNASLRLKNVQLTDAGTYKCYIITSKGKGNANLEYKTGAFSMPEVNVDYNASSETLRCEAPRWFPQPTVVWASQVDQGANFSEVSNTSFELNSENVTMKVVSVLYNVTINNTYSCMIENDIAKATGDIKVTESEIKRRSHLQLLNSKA
The experiment in a line: BLI (Octet HTX); antibody on anti-human IgG Fc capture sensor, human B7H4 ECD-His in solution; 2nd experiment. As for the experimental part: Target binding affinity of B7H4 antibodies was determined by label-free biolayer interferometry (BLI) on an Octet HTX instrument (FortéBio). Experiments were carried out while shaking at 1,000 RPM at 30° C. […] Anti-Human IgG Fc Capture (AHC) biosensors (FortéBio, cat. no. 18-5060) were pre-conditioned by exposure to 10 mM glycine (Sigma-Aldrich, cat. no. 15527) buffer pH 1.7 for 5 s, followed by neutralization in Sample Diluent (FortéBio, cat. no. 18-1048) for 5 s; both steps were repeated 2 times. Next, AHC sensors were loaded with antibody (1 μg/mL in Sample diluent) for 600 s. […] The theoretical molecular mass of human B7H4 and mouse B7H4 (as ECD-His tagged molecules) based on their amino acid sequences (26.8 kDa and 26.6 kDa respectively) were used for calculations. For each antibody a reference sensor was used, which was incubated with Sample Diluent instead of antigen. AHC sensors were regenerated by exposure to 10 mM glycine buffer pH 1.7 for 5 s, followed by neutralization in Sample Diluent for 5 s; both steps were repeated twice. Subsequently sensors were loaded again with antibody for the next cycle of kinetics measurements.
Data were acquired using Data Acquisition Software v9.0.0.49d (FortéBio) and analyzed with Data Analysis Software v9.0.0.12 (FortéBio). Data traces were corrected per antibody by subtraction of the reference sensor. The Y-axis was aligned to the last 10 s of the baseline, Interstep Correction alignment to dissociation and Savitzky-Golay filtering were applied. Data traces with a response<0.05 nm were excluded from analysis. The data was fitted with the 1:1 Global Full fit model using a window of interest for the association and dissociation times set at 300 s and 200 s respectively.

B1: IgG1-B7H4-C1-N52S-FEAR (antibody, V domains shown)
VH: QVQLQQWGAGLLKPSETLSLTCAVYGGSFSGYYWSWIRQPPGKGLEWIGEISHSGSTNYNPSLKSRVTISIDTSKNQFSLKLTSVTAADTAVFYCARGLFNWNFDSWGQGTLVTVSS
VL: DIQMTQSPSSLSASVGDRVTITCRASQGIRNDLGWYQQKPGKAPKRLIYGASSLQSGVPSRFSGSGSGTEFTLTISSLQPEDFATYYCLQHNSYPRTFGQGTTVEIKR
notes: Full length human IgG1 with L234F, L235E, D265A, K409R (FEAR) heavy chain constant region and kappa light chain; bivalent, monospecific; also called IgG1-B7H4-C1-052S-FEAR
For the molecule B1, the “EC50 (read off the curve)” value in assay [1] is about 1 µg/mL.

B2: bsIgG1-huCD3-H101G-FEALxB7H4-C1-N52S-FEAR (bispecific antibody)
heavy 1: not shown
light 1: not shown
heavy 2: QVQLQQWGAGLLKPSETLSLTCAVYGGSFSGYYWSWIRQPPGKGLEWIGEISHSGSTNYNPSLKSRVTISIDTSKNQFSLKLTSVTAADTAVFYCARGLFNWNFDSWGQGTLVTVSSASTKGPSVFPLAPSSKSTSGGTAALGCLVKDYFPEPVTVSWNSGALTSGVHTFPAVLQSSGLYSLSSVVTVPSSSLGTQTYICNVNHKPSNTKVDKRVEPKSCDKTHTCPPCPAPEFEGGPSVFLFPPKPKDTLMISRTPEVTCVVVAVSHEDPEVKFNWYVDGVEVHNAKTKPREEQYNSTYRVVSVLTVLHQDWLNGKEYKCKVSNKALPAPIEKTISKAKGQPREPQVYTLPPSREEMTKNQVSLTCLVKGFYPSDIAVEWESNGQPENNYKTTPPVLDSDGSFFLYSRLTVDKSRWQQGNVFSCSVMHEALHNHYTQKSLSLSPGK
light 2: DIQMTQSPSSLSASVGDRVTITCRASQGIRNDLGWYQQKPGKAPKRLIYGASSLQSGVPSRFSGSGSGTEFTLTISSLQPEDFATYYCLQHNSYPRTFGQGTTVEIKRTVAAPSVFIFPPSDEQLKSGTASVVCLLNNFYPREAKVQWKVDNALQSGNSQESVTEQDSKDSTYSLSSTLTLSKADYEKHKVYACEVTHQGLSSPVTKSFNRGEC
notes: also called bslgG1-huCD3-H101G-FEALxB7H4-C1-N52S-FEAR; BslgG1-huCD3-H101G-FEALxB7H4-C1-N52S-FEAR
Consider B2, for which the concentration for a half-maximal effect (EC50 (read off the curve)) in assay [2] was about 2 µg/mL. In addition, the binding result in assay [3] is “binds”.

B3: IgG1-B7H4-C5-FEAR (antibody, V domains shown)
VH: QLQLQESGPGLVKPSETLSLTCTVSGGSIKSGSYYWGWIRQPPGKGLEWIGNIYYSGSTYYNPSLRSRVTISVDTSKNQFSLKLSSVTAADTAVYYCAREGSYPNQFDPWGQGTLVTVSS
VL: EIVMTQSPATLSVSPGERATLSCRASQSVSSNLAWYQQKPGQAPRLLIYGASTRATGIPARFSGSGSGTEFTLTISSLQSEDFAVYYCQQYHSFPFTFGGGTKVEIKR
notes: Full length IgG1 FEAR, kappa; variable domains from US20190085080A1
Consider B3, for which, in assay [4], the binding result is recorded as “binds”. For the same molecule, in assay [5], the Kd turned out to be 9.9 nM, the off-rate constant (koff) came out at 0.0025 s⁻¹ and the on-rate (kon) turned out to be 250000 M⁻¹ s⁻¹.
